Assay results from patent publication US20120030779A1 (UNIVERSITY OF UTAH RESEARCH FOUNDTION, published 2012).

Molecular target: T1, glucose-6-phosphate dehydrogenase (G6PD), mouse heart (mouse, UniProt Q00612 2-515)
T1 construct: Endogenous protein immunoprecipitated or detected with rabbit anti-G6PD; also called G6PDH
Test: co-immunoprecipitation (anti-G6PD IP, anti-CryAB blot) from NTg mouse heart homogenate
Method: Immunoprecipitation and Immunoblotting: Heart homogenates were first prepared in TBS (10 mM Tris, 150 mM NaCl, pH 7.4) and centrifuged at 10,000 g for 15 minutes at 4° C.

T1 sequence (Q00612 2-515 limits assumed): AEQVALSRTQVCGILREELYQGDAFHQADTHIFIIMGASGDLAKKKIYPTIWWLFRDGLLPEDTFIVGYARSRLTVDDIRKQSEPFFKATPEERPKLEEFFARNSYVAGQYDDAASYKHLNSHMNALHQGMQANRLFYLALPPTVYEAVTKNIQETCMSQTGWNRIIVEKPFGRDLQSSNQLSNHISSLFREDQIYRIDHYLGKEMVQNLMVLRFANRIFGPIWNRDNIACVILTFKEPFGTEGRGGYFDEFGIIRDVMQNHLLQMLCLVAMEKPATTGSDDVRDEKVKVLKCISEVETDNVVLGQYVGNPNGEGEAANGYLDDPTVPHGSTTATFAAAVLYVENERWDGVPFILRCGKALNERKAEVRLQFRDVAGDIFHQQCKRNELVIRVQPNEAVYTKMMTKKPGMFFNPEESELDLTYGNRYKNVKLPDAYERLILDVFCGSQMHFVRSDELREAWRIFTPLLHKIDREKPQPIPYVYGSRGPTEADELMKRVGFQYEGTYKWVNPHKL

B1: mouse alphaB-crystallin (endogenous CryAB of non-transgenic mouse heart) (other, UniProt P23927 1-175, looked up)
chain: MDIAIHHPWIRRPFFPFHSPSRLFDQFFGEHLLESDLFSTATSLSPFYLRPPSFLRAPSWIDTGLSEMRLEKDRFSVNLDVKHFSPEELKVKVLGDVIEVHGKHEERQDEHGFISREFHRKYRIPADVDPLTITSSLSSDGVLTVNGPRKQVSGPERTIPITREEKPAVAAAPKK
notes: Only CryAB present in NTg heart extracts; also called CryAB (NTg)
- binding result: no binding
